Assay results published in patent US20220259593A1, “CONTROL OF MAMMALIAN GENE DOSAGE USING CRISPR” (The Regents of the University of California, priority 2019, published 2022).
Changes are numbered by the printed parent chain.

B1: cr360 (nucleic acid)
guide: GTTTAAGAGCTAAGCTGGAAACAGCATAGCAAGTTTAAATAAGGCTAGTCCGTTATCAACTTGAAAAAGTGGCATCGAGTCGATGCT
modifications: listed as DNA, chemistry not fully specified
B2: cr327 (nucleic acid)
guide: B1 guide with A64C, T75C, A83G
modifications: listed as DNA, chemistry not fully specified
B3: cr944 (nucleic acid)
guide: B1 guide with T62C, A67G, C73T, T75C, G77A, C81T, A83G, G85A
modifications: listed as DNA, chemistry not fully specified
B4: cr021 (nucleic acid)
guide: B1 guide with A8C, T75C, A83G
modifications: listed as DNA, chemistry not fully specified
B5: cr831 (nucleic acid)
guide: B1 guide with C60T, G69A, T75C, A83G
modifications: listed as DNA, chemistry not fully specified
B6: cr205 (nucleic acid)
guide: B1 guide with C60T, G69A, C73G, T75C, A83G, G85C
modifications: listed as DNA, chemistry not fully specified
B7: cr359 (nucleic acid)
guide: B1 guide with A28C, T75C, A83G
modifications: listed as DNA, chemistry not fully specified
B8: cr307 (nucleic acid)
guide: B1 guide with T75C, G77A, C81T, A83G
modifications: listed as DNA, chemistry not fully specified
B9: cr167 (nucleic acid)
guide: B1 guide with T61C, T75C, A83G
modifications: listed as DNA, chemistry not fully specified
B10: cr147 (nucleic acid)
guide: B1 guide with G63A, A64T, T75C, G79C, A83G
modifications: listed as DNA, chemistry not fully specified
B11: cr556 (nucleic acid)
guide: B1 guide with T62C, A67G, G72A, C73T, T75C, A83G, G85A, C86T
modifications: listed as DNA, chemistry not fully specified
B12: cr299 (nucleic acid)
guide: B1 guide with A64G, A65G, T75C, A83G
modifications: listed as DNA, chemistry not fully specified
B13: cr938 (nucleic acid)
guide: B1 guide with A47G, T75C, A83G
modifications: listed as DNA, chemistry not fully specified
B14: cr131 (nucleic acid)
guide: B1 guide with A65G, T75C, C76A, G82T, A83G
modifications: chemistry not given here
B15: cr161 (nucleic acid)
guide: B1 guide with A66C, T75C, G79C, A83G
modifications: listed as DNA, chemistry not fully specified
B16: cr994 (nucleic acid)
guide: B1 guide with T75C, G79T, A83G
modifications: listed as DNA, chemistry not fully specified
B17: cr707 (nucleic acid)
guide: B1 guide with T75C, A78T, A83G
modifications: listed as DNA, chemistry not fully specified
B18: cr267 (nucleic acid)
guide: B1 guide with G18C, T75C, A83G
modifications: listed as DNA, chemistry not fully specified
B19: cr646 (nucleic acid)
guide: B1 guide with C60A, G69T, A74T, T75C, A83G, T84A
modifications: listed as DNA, chemistry not fully specified
B20: cr306 (nucleic acid)
guide: B1 guide with A47T, T75C, A78T, A83G
modifications: listed as DNA, chemistry not fully specified
B21: cr800 (nucleic acid)
guide: B1 guide with C45T, G48A, A59T, T70A, G72A, T75C, A83G, C86T
modifications: listed as DNA, chemistry not fully specified
B22: cr825 (nucleic acid)
guide: B1 guide with A74T, T75G, A83C, T84A
modifications: listed as DNA, chemistry not fully specified
B23: cr224 (nucleic acid)
guide: B1 guide with T61C, A68G, C73T, G85A
modifications: listed as DNA, chemistry not fully specified
B24: cr102 (nucleic acid)
guide: B1 guide with C60T, G69A, C73A, T75C, A83G, G85T
modifications: listed as DNA, chemistry not fully specified
B25: cr372 (nucleic acid)
guide: B1 guide with T46G, T75C, A83G
modifications: listed as DNA, chemistry not fully specified
B26: cr416 (nucleic acid)
guide: B1 guide with A74G, T75C, G77A, C81T, A83G, T84C
modifications: listed as DNA, chemistry not fully specified
B27: cr287 (nucleic acid)
guide: B1 guide with A65T, T75C, G79C, A83G
modifications: listed as DNA, chemistry not fully specified
B28: cr783 (nucleic acid)
guide: B1 guide with A59T, T70A, C73A, T75C, A83G, G85T
modifications: listed as DNA, chemistry not fully specified
B29: cr644 (nucleic acid)
guide: B1 guide with A28T, T75C, A83G
modifications: listed as DNA, chemistry not fully specified
B30: cr159 (nucleic acid)
guide: B1 guide with A31T, T75C, A83G
modifications: listed as DNA, chemistry not fully specified

tested on: K562 CRISPRi cells; assay: Constant region variant library pooled growth screen, K562; assay type: cell-based, human; conditions: sgRNA constant region variants; activity relative to the original, un-modified constant region cr995
In short: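 Growth screens in K562 CRISPRi cells were harvested 4-8 days post-selection at >2000× library coverage. Each variant's phenotype was referenced to the unmodified constant region with the same targeting sequence.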

B1 and B2 are the same in Mean relative activity: 1.066 for the first, 1.066 for the second.

Molecule B3 has a Mean relative activity of 1.065.

same assay, conditions: sgRNA constant region variants; activity relative to the un-modified constant region cr995

Compared with B4, B5 is lower in Mean relative activity: 0.9786 for the first, 0.962 for the second.

Compared with B6, B7 is higher in Mean relative activity: 0.9515 for the first, 0.9746 for the second.

First: B8
Second: B9
The Mean relative activity of the first is higher: 0.9746 for the first, 0.9545 for the second.

First: B10
Second: B11
The Mean relative activity of the first is lower: 0.9753 for the first, 0.9785 for the second.

First: B12
Second: B13
The Mean relative activity of the first is higher: 0.9718 for the first, 0.9596 for the second.

Compared with B14, B15 is higher in Mean relative activity: 0.96 for the first, 0.9671 for the second.

Going from B16 to B17, the Mean relative activity falls from 0.9671 to 0.9632.

Compared with B18, B19 is higher in Mean relative activity: 0.9552 for the first, 0.962 for the second.

Going from B20 to B21, the Mean relative activity rises from 0.9647 to 0.9728.

Going from B22 to B23, the Mean relative activity rises from 0.9691 to 0.9777.

Compared with B24, B25 is lower in Mean relative activity: 0.9651 for the first, 0.9545 for the second.

Going from B26 to B27, the Mean relative activity rises from 0.9574 to 0.9686.

Compared with B28, B29 is lower in Mean relative activity: 0.9779 for the first, 0.9694 for the second.

Work on B30 yielded a Mean relative activity of 0.9739.
